Experimental data as given in patent US20200199241A1 (Chugai, published 2020).
Substitutions are numbered along the chain they refer to. Names may count otherwise.

B1: IgG1-F1366 (antibody)
heavy: QVQLQESGPGLVKPSETLSLTCAVSGHSISHDHAWSWVRQPPGEGLEWIGFISYSGITNYNPSLQGRVTISRDNSKNTLYLQMNSLRAEDTAVYYCARSLARTTAMDYWGEGTLVTVSSASTKGPSVFPLAPSSKSTSGGTAALGCLVKDYFPEPVTVSWNSGALTSGVHTFPAVLQSSGLYSLSSVVTVPSSSLGTQTYICNVNHKPSNTKVDKKVEPKSCDKTHTCPPCPAPELRGGPKVFLFPPKPKDTLYISREPEVTCVVVDVSHEDPEVKFNWYVDGVEVHNAKTKPREEQYNSTYRVVSVLTVLHQDWLNGKEYKCKVSNKALPAPIEKTISKAKGQPREPQVYTLPPSRDELTKNQVSLTCLVKGFYPSDIAVEWESNGQPENNYKTTPPVLDSDGSFFLYSKLTVDKSRWQQGNVFSCSVMHEALDYHFTKKELSLSP
light: not shown
notes: EU numbering; copies: 2 + 2
B2: IgG1-F1373 (antibody)
heavy: B1 heavy with S256T
light: not shown
notes: EU numbering; copies: 2 + 2
B3: IgG1-F1372 (antibody)
heavy: B1 heavy with S256T, F438T, K440R
light: not shown
notes: EU numbering; copies: 2 + 2
B4: IgG1-F1379 (antibody)
heavy: B1 heavy with E258T, D435H, K440Q, E442S
light: not shown
notes: EU numbering; copies: 2 + 2
B5: IgG1-F1368 (antibody)
heavy: B1 heavy with S256T, D435H
light: not shown
notes: EU numbering; copies: 2 + 2
B6: IgG1-F1370 (antibody)
heavy: B1 heavy with S256T, F438V
light: not shown
notes: EU numbering; copies: 2 + 2
B7: IgG1-F1378 (antibody)
heavy: B1 heavy with E258T, D435H, F438T, K440Q, E442S
light: not shown
notes: EU numbering; copies: 2 + 2
B8: IgG1-F1371 (antibody)
heavy: B1 heavy with S256T, F438V, K440R
light: not shown
notes: EU numbering; copies: 2 + 2
B9: IgG1-F1367 (antibody)
heavy: B1 heavy with S256T, D435H, F438T, K440R
light: not shown
notes: EU numbering; copies: 2 + 2
B10: IgG1-F1375 (antibody)
heavy: B1 heavy with S256T, E258T, D435H, F438V, K440Q, E442S
light: not shown
notes: EU numbering; copies: 2 + 2
B11: IgG1-F1377 (antibody)
heavy: B1 heavy with D435H, F438V, K440Q, E442S
light: not shown
notes: EU numbering; copies: 2 + 2
B12: IgG1-F1376 (antibody)
heavy: B1 heavy with S256T, D435H, F438V, K440Q, E442S
light: not shown
notes: EU numbering; copies: 2 + 2
B13: IgG1-F1374 (antibody)
heavy: B1 heavy with S256T, K440R
light: not shown
notes: EU numbering; copies: 2 + 2
B14: GpH7-B3 variant E269K/GpL16-k0 (antibody, human IgG1)
heavy: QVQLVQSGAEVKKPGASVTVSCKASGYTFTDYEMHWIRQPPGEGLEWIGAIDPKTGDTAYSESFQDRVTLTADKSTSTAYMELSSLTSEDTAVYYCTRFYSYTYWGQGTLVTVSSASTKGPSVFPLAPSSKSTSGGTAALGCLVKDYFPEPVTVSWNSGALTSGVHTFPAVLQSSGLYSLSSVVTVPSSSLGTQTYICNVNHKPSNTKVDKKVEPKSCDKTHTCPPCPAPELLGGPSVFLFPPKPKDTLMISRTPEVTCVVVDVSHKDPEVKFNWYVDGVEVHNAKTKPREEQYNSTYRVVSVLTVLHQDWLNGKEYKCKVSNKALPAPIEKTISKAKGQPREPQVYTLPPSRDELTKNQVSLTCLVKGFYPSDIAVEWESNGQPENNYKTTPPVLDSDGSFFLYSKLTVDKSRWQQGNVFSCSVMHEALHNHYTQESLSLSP
light: DIVMTQSPLSLPVTPGEPASISCQASESLVHSNRNTYLHWYLQKPGQSPQLLIYKVSNRFSGVPDRFSGSGSGTDFTLKISRVEAEDVGVYYCSQNTHVPPTFGQGTKVEIE
notes: copies: 2 + 2
B15: GpH7-B3 variant E269I/GpL16-k0 (antibody, human IgG1)
heavy: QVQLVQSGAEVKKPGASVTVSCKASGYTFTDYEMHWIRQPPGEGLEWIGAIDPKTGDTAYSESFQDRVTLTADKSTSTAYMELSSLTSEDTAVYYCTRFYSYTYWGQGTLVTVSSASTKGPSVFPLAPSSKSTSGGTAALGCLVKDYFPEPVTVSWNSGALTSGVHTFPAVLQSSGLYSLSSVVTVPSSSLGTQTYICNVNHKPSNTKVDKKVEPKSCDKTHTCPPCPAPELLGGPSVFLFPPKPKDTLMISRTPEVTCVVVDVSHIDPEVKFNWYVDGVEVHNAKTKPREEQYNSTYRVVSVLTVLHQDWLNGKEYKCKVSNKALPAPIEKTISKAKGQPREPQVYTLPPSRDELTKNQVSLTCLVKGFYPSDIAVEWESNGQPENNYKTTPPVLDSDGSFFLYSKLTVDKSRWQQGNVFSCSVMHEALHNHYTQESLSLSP
light: B14 light
notes: copies: 2 + 2
B16: GpH7-B3 variant G236K/GpL16-k0 (antibody, human IgG1)
heavy: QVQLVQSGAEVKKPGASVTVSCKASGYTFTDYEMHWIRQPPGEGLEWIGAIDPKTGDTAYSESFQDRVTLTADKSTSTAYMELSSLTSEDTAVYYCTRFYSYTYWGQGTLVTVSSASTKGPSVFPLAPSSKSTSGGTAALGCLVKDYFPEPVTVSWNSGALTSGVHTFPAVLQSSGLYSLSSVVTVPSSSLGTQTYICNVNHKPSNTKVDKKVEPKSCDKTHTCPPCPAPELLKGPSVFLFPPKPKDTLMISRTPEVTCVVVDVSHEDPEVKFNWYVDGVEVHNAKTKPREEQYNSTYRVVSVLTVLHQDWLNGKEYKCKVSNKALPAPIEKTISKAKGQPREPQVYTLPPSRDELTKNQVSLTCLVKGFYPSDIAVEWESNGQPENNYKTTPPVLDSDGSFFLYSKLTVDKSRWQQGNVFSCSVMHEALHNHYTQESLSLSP
light: B14 light
notes: copies: 2 + 2
B17: GpH7-B3 variant P238E/GpL16-k0 (antibody, human IgG1)
heavy: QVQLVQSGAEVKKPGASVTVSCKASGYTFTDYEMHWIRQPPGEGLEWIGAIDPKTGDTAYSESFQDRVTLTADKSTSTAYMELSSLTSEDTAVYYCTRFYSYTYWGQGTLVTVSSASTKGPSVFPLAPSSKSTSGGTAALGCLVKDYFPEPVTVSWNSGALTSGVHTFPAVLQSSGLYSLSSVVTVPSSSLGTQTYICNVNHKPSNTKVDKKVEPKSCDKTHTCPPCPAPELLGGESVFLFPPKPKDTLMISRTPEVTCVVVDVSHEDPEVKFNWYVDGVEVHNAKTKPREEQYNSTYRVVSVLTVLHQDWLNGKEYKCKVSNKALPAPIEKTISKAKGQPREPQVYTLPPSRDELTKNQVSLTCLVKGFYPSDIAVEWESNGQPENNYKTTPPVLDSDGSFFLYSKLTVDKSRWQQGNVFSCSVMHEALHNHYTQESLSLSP
light: B14 light
notes: copies: 2 + 2

target: T1, soluble human FcRn complexed with β2-microglobulin (human, UniProt P61769 21-119, limits assumed); assay: Biacore SPR, pH 7.0;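 also: test antibodies captured on a Protein L chip with human FcRn flowed over as analyte, KD obtained as the ratio of dissociation to association rate constants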
T1 construct: also called hFcRn
T1 sequence (chain, as listed by the source limits assumed, chain 1 of 2): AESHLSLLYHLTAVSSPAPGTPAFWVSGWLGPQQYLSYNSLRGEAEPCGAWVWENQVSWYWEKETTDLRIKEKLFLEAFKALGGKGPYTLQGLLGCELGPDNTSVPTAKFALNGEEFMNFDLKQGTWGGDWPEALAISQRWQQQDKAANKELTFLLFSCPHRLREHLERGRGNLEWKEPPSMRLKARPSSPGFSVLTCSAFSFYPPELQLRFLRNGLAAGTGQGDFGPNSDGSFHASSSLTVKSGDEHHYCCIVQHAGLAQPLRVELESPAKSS
T1 sequence (P61769 21-119 limits assumed, chain 2 of 2): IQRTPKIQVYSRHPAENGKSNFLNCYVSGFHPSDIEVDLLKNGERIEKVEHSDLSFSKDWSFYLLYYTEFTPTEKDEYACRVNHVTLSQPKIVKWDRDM

Binder | Kd [nM]
B1 | 117
B2 | 86.7
B3 | 228
B4 | 285
B5 | 54.9
B6 | 91.4
B7 | 361
B8 | 109
B9 | 179
B10 | 103
B11 | 82.7
B12 | 90.9
B13 | 120

target: T2, human FcγRIIa(H) (human, UniProt P12318 36-217); assay: SPR (Biacore);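 also: antibody variants captured on sensor chip, Fcγ receptor flowed over at 25 °C, bound receptor normalized to amount of captured antibody, expressed relative to reference antibody set as 100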
T2 construct: also called FcgRIIaH; FcγRIIa type H
T2 sequence: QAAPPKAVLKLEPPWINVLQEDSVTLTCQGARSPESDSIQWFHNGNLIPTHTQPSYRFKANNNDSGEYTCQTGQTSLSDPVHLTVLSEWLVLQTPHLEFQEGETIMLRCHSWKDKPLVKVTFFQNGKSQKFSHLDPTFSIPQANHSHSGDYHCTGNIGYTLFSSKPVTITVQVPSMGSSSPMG

Binder | relative binding activity
B14 | 22 % of GpH7-B3/GpL16-k0
B15 | 32 % of GpH7-B3/GpL16-k0
B16 | 18 % of GpH7-B3/GpL16-k0
B17 | 2 % of GpH7-B3/GpL16-k0

target: T3, human FcγRIIb (human, UniProt P31994 43-217, limits assumed); assay: SPR (Biacore);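 also: antibody variants captured on sensor chip, Fcγ receptor flowed over at 25 °C, bound receptor normalized to amount of captured antibody, expressed relative to reference antibody set as 100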
T3 construct: also called FcgRIIb
T3 sequence: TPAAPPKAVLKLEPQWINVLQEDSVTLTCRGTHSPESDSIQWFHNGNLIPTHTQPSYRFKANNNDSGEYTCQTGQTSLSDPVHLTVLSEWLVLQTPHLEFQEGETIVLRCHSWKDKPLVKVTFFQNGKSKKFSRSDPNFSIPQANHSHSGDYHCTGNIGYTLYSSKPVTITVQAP

Binder | relative binding activity
B14 | 1 % of GpH7-B3/GpL16-k0
B16 | 19 % of GpH7-B3/GpL16-k0

target: T4, human FcγRIIIa(F) (human, UniProt P08637 17-208, limits assumed); assay: SPR (Biacore);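 also: antibody variants captured on sensor chip, Fcγ receptor flowed over at 25 °C, bound receptor normalized to amount of captured antibody, expressed relative to reference antibody set as 100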
T4 construct: also called FcgRIIIaF; allotype F158
T4 sequence (P08637 other isoform, or with tags, fused parts or gaps limits assumed): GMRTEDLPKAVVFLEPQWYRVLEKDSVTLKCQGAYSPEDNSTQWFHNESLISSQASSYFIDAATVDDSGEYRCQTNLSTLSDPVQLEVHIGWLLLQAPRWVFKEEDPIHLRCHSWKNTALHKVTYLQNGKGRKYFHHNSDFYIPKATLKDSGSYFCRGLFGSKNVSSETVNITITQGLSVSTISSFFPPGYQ

Binder | relative binding activity
B14 | 11 % of GpH7-B3/GpL16-k0
B15 | 10 % of GpH7-B3/GpL16-k0
B16 | 1 % of GpH7-B3/GpL16-k0
B17 | 1 % of GpH7-B3/GpL16-k0

Target: T5, human FcγRIIa(R) (human, UniProt P12318 36-217)
T5 construct: also called FcgRIIaR; FcγRIIa type R
T5 chain: T2 sequence with H133R
Assay: SPR (Biacore);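 also: antibody variants captured on sensor chip, Fcγ receptor flowed over at 25 °C, bound receptor normalized to amount of captured antibody, expressed relative to reference antibody set as 100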

Binder | relative binding activity
B14 | 4 % of GpH7-B3/GpL16-k0
B15 | 16 % of GpH7-B3/GpL16-k0
B17 | 21 % of GpH7-B3/GpL16-k0

target: T6, human FcγRIa (human, UniProt P12314 16-292, limits assumed); assay: SPR (Biacore)
T6 construct: also called FcgRIa; FcγRI (CD64)
T6 sequence (P12314 16-292 limits assumed): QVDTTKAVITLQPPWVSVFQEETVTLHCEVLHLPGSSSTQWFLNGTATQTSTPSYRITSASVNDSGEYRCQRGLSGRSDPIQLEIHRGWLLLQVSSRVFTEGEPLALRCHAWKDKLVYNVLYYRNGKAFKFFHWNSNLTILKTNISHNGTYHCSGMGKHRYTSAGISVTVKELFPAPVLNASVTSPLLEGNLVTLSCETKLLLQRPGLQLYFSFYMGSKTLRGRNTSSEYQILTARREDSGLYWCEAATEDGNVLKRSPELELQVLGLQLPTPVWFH

Binder | relative binding activity
B14 | 71 % of GpH7-B3/GpL16-k0
B15 | 94 % of GpH7-B3/GpL16-k0
B16 | 13 % of GpH7-B3/GpL16-k0
B17 | 95 % of GpH7-B3/GpL16-k0
